From patent publication US20180356429A1

Assays:
[1] = biological target: Recombinant human IL-13 (R&D Systems, MN, catalog no. 213-ILB/CF) (human) (UniProt P35225); test: sandwich pair screen, negative (blank) signal, binder is detection Ab; capture Ab 4D7
[2] = biological target: Recombinant human IL-13 (R&D Systems, MN, catalog no. 213-ILB/CF) (human) (UniProt P35225); test: sandwich pair screen, negative (blank) signal, binder is detection Ab; capture Ab 11H4
[3] = biological target: Recombinant human IL-13 (R&D Systems, MN, catalog no. 213-ILB/CF) (human) (UniProt P35225); test: sandwich pair screen, negative (blank) signal, binder is detection Ab; capture Ab 14C9
[4] = biological target: Recombinant human IL-13 (R&D Systems, MN, catalog no. 213-ILB/CF) (human) (UniProt P35225); test: sandwich pair screen, negative (blank) signal, binder is detection Ab; capture Ab 8C11
[5] = biological target: Recombinant human IL-13 (R&D Systems, MN, catalog no. 213-ILB/CF) (human) (UniProt P35225); test: sandwich pair screen, negative (blank) signal, binder is detection Ab; capture Ab 32116
[6] = biological target: Recombinant human IL-13 (R&D Systems, MN, catalog no. 213-ILB/CF) (human) (UniProt P35225); test: sandwich pair screen, negative (blank) signal, binder is detection Ab; capture Ab 228B/C
[7] = biological target: Recombinant human IL-13 (R&D Systems, MN, catalog no. 213-ILB/CF) (human) (UniProt P35225); test: sandwich pair screen, 100 pg/mL recombinant IL-13, binder is detection Ab; capture Ab 4D7
[8] = biological target: Recombinant human IL-13 (R&D Systems, MN, catalog no. 213-ILB/CF) (human) (UniProt P35225); test: sandwich pair screen, 100 pg/mL recombinant IL-13, binder is detection Ab; capture Ab 11H4
[9] = biological target: Recombinant human IL-13 (R&D Systems, MN, catalog no. 213-ILB/CF) (human) (UniProt P35225); test: sandwich pair screen, 100 pg/mL recombinant IL-13, binder is detection Ab; capture Ab 14C9
[10] = biological target: Recombinant human IL-13 (R&D Systems, MN, catalog no. 213-ILB/CF) (human) (UniProt P35225); test: sandwich pair screen, 100 pg/mL recombinant IL-13, binder is detection Ab; capture Ab 8C11
[11] = biological target: Recombinant human IL-13 (R&D Systems, MN, catalog no. 213-ILB/CF) (human) (UniProt P35225); test: sandwich pair screen, 100 pg/mL recombinant IL-13, binder is detection Ab; capture Ab 32116
[12] = biological target: Recombinant human IL-13 (R&D Systems, MN, catalog no. 213-ILB/CF) (human) (UniProt P35225); test: sandwich pair screen, negative (blank) signal, binder is detection Ab; capture Ab MILR1444A
[13] = biological target: Recombinant human IL-13 (R&D Systems, MN, catalog no. 213-ILB/CF) (human) (UniProt P35225); test: sandwich pair screen, 100 pg/mL recombinant IL-13, binder is detection Ab; capture Ab 228B/C
[14] = biological target: Recombinant human IL-13 (R&D Systems, MN, catalog no. 213-ILB/CF) (human) (UniProt P35225); test: sandwich pair screen, 100 pg/mL recombinant IL-13, binder is detection Ab; capture Ab MILR1444A

Chain of Recombinant human IL-13 (R&D Systems, MN, catalog no. 213-ILB/CF) (human) (P35225 other isoform, or with tags, fused parts or gaps): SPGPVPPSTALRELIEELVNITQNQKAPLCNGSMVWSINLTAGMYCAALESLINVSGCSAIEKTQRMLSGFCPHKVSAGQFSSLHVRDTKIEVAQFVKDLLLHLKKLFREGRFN

- Assay Signal Neg (blank) [1]: 24.7
- Assay Signal Neg (blank) [2]: 22.4
- Assay Signal Neg (blank) [3]: 29
- Assay Signal Neg (blank) [4]: 3.9
- Assay Signal Neg (blank) [5]: 15.2
- Assay Signal Neg (blank) [6]: 26.6
- Assay Signal Pos [7]: 29.9
- Assay Signal Pos [8]: 9540
- Assay Signal Pos [9]: 70.3
- Assay Signal Pos [10]: 25.4
- Assay Signal Pos [11]: 126
- Assay Signal Neg (blank) [12]: 5.4
- Assay Signal Pos [13]: 27.7
- Assay Signal Pos [14]: 6
B1: 228B/C (antibody, from a related filing, V domains shown)
VH: QVQLQESGPGLVAPSQSLSITCTVSGFSLNAYSVNWVRQPPGKGLEWLGMIWGDGKIVYNSALKSRLNISKDSSKSQVFLKMSSLQSDDTARYYCAGDGYYPYAMDNWGHGTSVTVSS
VL: NIVLTQSPASLAVSLGQRATISCRASKSVDSYGNSFMHWYQQKPGQPPKLLIYLASNLESGVPARFSGSGSRTDFTLTIDPVEADDAASYYCQQNNEDPRTFGGGTKLEIK
